# Data reported in publication PMC9573856 (2022).
# T1: 3 × FLAG-aPKC (atypical protein kinase C subtype iota, PKCι), wild type, full length (Homo sapiens (Human), UniProt P41743)
# T1 chain: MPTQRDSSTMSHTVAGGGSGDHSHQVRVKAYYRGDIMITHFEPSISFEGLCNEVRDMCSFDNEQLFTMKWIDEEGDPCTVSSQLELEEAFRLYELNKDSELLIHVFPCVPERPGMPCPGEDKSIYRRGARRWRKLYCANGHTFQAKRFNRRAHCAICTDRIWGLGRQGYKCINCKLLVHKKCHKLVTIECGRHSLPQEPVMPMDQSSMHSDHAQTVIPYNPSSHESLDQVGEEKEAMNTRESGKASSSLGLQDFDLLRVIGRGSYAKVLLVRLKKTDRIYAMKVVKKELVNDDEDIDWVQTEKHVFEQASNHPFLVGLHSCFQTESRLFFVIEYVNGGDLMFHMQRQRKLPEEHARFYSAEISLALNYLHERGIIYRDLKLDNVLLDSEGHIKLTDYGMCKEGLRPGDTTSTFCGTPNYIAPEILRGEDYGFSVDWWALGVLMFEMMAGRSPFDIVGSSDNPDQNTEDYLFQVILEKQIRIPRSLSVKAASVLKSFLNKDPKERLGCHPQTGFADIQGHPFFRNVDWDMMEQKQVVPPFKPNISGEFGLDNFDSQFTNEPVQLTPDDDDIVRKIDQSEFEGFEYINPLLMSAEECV
# B1: PAR6 (PAR6α), untagged, full length (protein)
# chain: MARPQRTPARSPDSIVEVKSKFDAEFRRFALPRASVSGFQEFSRLLRAVHQIPGLDVLLGYTDAHGDLLPLTNDDSLHRALASGPPPLRLLVQKREADSSGLAFASNSLQRRKKGLLLRPVAPLRTRPPLLISLPQDFRQVSSVIDVDLLPETHRRVRLHKHGSDRPLGFYIRDGMSVRVAPQGLERVPGIFISRLVRGGLAESTGLLAVSDEILEVNGIEVAGKTLDQVTDMMVANSHNLIVTVKPANQRNNVVRGASGRLTGPPSAGPGPAEPDSDDDSSDLVIENRQPPSSNGLSQGPPCWDLHPGCRHPGTRSSLPSLDDQEQASSGWGSRIRGDGSGFSL
# Target: T1, 3 × FLAG-aPKC (atypical protein kinase …)
# Test: co-expression, FLAG co-purification, SEC and glycerol gradient
binder,measurement,value
B1,binding result,binds
